{
  "source": "IntAct's records for PubMed 18256029",
  "parents": {"B1": {"name": "Programmed cell death protein 6 (Homo sapiens), O75340 (parent)", "chain": "MAAYSYRPGPGAGPGPAAGAALPDQSFLWNVFQRVDKDRSGVISDTELQQALSNGTWTPFNPVTVRSIISMFDRENKAGVNFSEFTGVWKYITDWQNVFRTYDRDNSGMIDKNELKQALSGFGYRLSDQFHDILIRKFDRQGRGQIAFDDFIQGCIVLQRLTDIFRRYDTDQDGWIQVSYEQYLSMVFSIV", "partner": "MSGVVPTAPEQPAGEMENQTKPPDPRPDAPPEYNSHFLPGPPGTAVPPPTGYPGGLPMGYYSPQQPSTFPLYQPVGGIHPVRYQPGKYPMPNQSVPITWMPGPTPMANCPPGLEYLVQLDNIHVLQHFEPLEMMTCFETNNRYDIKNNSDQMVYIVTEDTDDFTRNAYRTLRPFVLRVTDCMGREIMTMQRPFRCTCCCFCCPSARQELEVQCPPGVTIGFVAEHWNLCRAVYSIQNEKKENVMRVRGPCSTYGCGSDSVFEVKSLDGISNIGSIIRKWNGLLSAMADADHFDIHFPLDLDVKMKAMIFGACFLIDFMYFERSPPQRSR"}, "B2": {"name": "Programmed cell death protein 6 (Homo sapiens), O75340 (parent)", "chain": "B1 chain", "partner": "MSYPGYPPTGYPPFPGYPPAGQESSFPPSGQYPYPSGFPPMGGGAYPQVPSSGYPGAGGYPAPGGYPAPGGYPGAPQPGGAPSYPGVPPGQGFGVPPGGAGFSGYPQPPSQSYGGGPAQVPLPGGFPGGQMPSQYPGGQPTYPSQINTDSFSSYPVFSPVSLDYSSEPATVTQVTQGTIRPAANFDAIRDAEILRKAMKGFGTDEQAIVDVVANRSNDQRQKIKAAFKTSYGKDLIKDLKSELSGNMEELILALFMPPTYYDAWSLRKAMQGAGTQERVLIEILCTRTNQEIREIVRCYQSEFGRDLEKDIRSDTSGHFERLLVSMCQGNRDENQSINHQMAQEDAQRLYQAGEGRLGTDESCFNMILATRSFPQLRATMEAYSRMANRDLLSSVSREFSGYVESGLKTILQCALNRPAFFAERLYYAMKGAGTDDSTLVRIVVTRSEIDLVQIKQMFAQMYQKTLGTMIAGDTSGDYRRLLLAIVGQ"}, "B3": {"name": "Programmed cell death protein 6 (Homo sapiens), O75340 (parent)", "chain": "B1 chain", "partner": "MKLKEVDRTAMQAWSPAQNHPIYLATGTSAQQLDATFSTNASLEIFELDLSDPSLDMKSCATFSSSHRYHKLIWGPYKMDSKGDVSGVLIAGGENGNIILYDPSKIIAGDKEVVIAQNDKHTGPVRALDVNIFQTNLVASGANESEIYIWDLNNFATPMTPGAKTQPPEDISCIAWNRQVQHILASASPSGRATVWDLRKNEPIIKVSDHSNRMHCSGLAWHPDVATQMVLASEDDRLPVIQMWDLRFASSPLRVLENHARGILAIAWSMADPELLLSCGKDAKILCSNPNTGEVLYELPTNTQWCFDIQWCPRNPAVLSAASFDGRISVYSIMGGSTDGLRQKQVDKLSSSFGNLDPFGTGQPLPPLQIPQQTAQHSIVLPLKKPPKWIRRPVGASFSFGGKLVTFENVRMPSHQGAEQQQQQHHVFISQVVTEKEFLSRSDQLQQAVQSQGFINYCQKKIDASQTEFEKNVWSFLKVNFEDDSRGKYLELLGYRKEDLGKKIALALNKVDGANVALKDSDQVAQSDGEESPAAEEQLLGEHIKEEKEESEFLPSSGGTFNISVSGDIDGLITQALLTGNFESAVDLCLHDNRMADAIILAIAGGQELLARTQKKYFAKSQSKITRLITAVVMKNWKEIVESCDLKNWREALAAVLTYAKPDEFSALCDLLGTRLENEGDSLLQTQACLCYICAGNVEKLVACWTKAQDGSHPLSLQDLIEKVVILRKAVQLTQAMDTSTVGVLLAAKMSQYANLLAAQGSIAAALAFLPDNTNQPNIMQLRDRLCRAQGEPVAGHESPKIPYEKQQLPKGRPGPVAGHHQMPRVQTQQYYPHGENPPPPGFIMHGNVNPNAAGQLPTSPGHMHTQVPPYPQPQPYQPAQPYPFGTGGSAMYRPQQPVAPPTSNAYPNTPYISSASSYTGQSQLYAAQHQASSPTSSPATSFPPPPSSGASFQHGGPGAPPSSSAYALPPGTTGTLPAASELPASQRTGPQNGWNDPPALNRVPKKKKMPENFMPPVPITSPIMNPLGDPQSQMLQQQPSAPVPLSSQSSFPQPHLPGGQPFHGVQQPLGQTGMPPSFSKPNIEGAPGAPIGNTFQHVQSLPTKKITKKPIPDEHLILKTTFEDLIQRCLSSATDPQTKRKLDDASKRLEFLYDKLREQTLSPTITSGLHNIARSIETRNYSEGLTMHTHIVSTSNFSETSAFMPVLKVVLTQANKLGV"}, "B4": {"name": "Programmed cell death protein 6 (Homo sapiens), O75340 (parent)", "chain": "B1 chain"}},
  "data": [
    {"variants_of": "B1", "settings": "with pls4_human PLSCR4, Q9NRQ2", "values": [
      {"variant": "E47A;E114A", "effect of a mutation on the interaction": "decreasing interaction"}
    ]},
    {"variants_of": "B2", "settings": "with anxa7_human ANXA7, P20073", "values": [
      {"variant": "Y91A", "effect of a mutation on the interaction": "disrupting interaction"},
      {"variant": "F60A", "effect of a mutation on the interaction": "disrupting interaction"},
      {"variant": "W57A", "effect of a mutation on the interaction": "decreasing interaction"},
      {"variant": "Y180A", "effect of a mutation on the interaction": "disrupting interaction"},
      {"variant": "W95A", "effect of a mutation on the interaction": "disrupting interaction"}
    ]},
    {"variants_of": "B3", "settings": "with sc31a_human SEC31A", "values": [
      {"variant": "F60A", "effect of a mutation on the interaction": "disrupting interaction"}
    ]},
    {"variants_of": "B4", "settings": "with pls3_human PLSCR3, Q9NRY6", "values": [
      {"variant": "Y180A", "effect of a mutation on the interaction": "disrupting interaction"},
      {"variant": "W95A", "effect of a mutation on the interaction": "disrupting interaction"},
      {"variant": "Y91A", "effect of a mutation on the interaction": "disrupting interaction"},
      {"variant": "W57A", "effect of a mutation on the interaction": "decreasing interaction"},
      {"variant": "F60A", "effect of a mutation on the interaction": "disrupting interaction"}
    ]},
    {"variants_of": "B4", "settings": "with pdc6i_human PDCD6IP", "values": [
      {"variant": "Y180A", "effect of a mutation on the interaction": "disrupting interaction"},
      {"variant": "W95A", "effect of a mutation on the interaction": "disrupting interaction"},
      {"variant": "Y91A", "effect of a mutation on the interaction": "disrupting interaction"},
      {"variant": "W57A", "effect of a mutation on the interaction": "decreasing interaction"},
      {"variant": "F60A", "effect of a mutation on the interaction": "disrupting interaction"}
    ]},
    {"variants_of": "B4", "settings": "with anx11_human ANXA11, P50995", "values": [
      {"variant": "Y180A", "effect of a mutation on the interaction": "disrupting interaction"},
      {"variant": "W95A", "effect of a mutation on the interaction": "disrupting interaction"},
      {"variant": "Y91A", "effect of a mutation on the interaction": "disrupting interaction"},
      {"variant": "W57A", "effect of a mutation on the interaction": "decreasing interaction"},
      {"variant": "F60A", "effect of a mutation on the interaction": "disrupting interaction"}
    ]},
    {"variants_of": "B4", "settings": "with ts101_human TSG101, Q99816", "values": [
      {"variant": "Y180A", "effect of a mutation on the interaction": "disrupting interaction"},
      {"variant": "W95A", "effect of a mutation on the interaction": "disrupting interaction"}
    ]},
    {"variants_of": "B4", "settings": "with pls3_human PLSCR3, Q9NRY6", "remark": "another data set of the same source", "values": [
      {"variant": "E47A;E114A", "effect of a mutation on the interaction": "decreasing interaction"}
    ]}
  ]
}
